The results in this text go back to publication PMC8866119 (Nature, 2021).

Positions count from the first letter of the chain named.

This test deals with SARS-CoV-2 Omicron (B.1.1.529) RBD (SARS-CoV-2 Omicron B.1.1.529 (BA.1), strain).

B1: COV2-2828 (antibody, V domains shown)
VH: EVQLVESGGGLVKPGGSLRLSCAASGFTFRDYSMNWVRQAPGKGLEWVSSISSGGSYIYYADSVKGRFTISRDNAKNSLYLQMNSLRAEDTAVYYCARGGSILWWLIDYWGQGTLVTVSS
VL: NFMLTQPHSVSESPGKTVTISCTGSSGSIASNYVQWYQQRPGSAPTTVIYEDNQRPSGVPDRFSGSIDSSSNSASLTISGLKTEDEADYYCQSYDSTSRVVFGGGTKLTVL
Turning to B1, the binding result is on record as “binds”.

B2: BD55-3500 (antibody, V domains shown)
VH: QVQLVESGGGVVQPGRSLRLSCAASGFIFSRYDIHWVRQTPGKGLEWVALIRYDGSDKYYADSVKGRFTISRDNSKNTLYLQMNSLRVEDTAVYYCAKEGIQGYSGYDYFWTGFYFDYWGQGTLVTVSS
VL: not shown
In the case of B2, the binding result was “binds”.

B3: BD-692 (antibody, V domains shown)
VH: EVQLVESGGGLVQPGGSLRLSCAASGFTFSSHGMNWVRQAPGKGLEWVSYISSRDSTIYYADSVKGRFTISRDNAKNSLYLQMNSLRDEDTAVYYCARDNSDYDYSFGAYYFDYWGQGTLVTVSS
VL: EIVLTQSPATLSLSPGERATVSCRASQSVSNFLAWYQQKPGQAPRLLIHDASNRATGIPARFSGSGSGTDFTLTISSLEPEDFAVYYCQQRRNWPPVTFGQGTRLEIK
Turning to B3, the binding result is on record as “binds”.

B4: BD55-1294 (antibody, V domains shown)
VH: QLHLQESGPGLVKPSETLSLTCTVSGGSIFSSTYYWGWIRQTPGKGLEWIGSFYNGGSTYYNPSLESRVTISEDTSKNQFSLKLSSVTAADTAVYYCARDLSETASYHNWFDPWGQGTLVTVSS
VL: DIQLTQSPSFLSASVGDRITITCRASQAISNYLAWYQQKPGKAPKLLIYGASTLHSGVPSRFSGSHSGSEFTLTISGLQPEDFATYYCQQLNSFGPGTKVDIK
Consider B4, for which the binding result is given as “binds”.

B5: BD-801 (antibody, V domains shown)
VH: DVQLVESGGGLVQPGGSRRLSCAASGFMFSSYWMNWVRQAPGKGLEWVASIKEDGSEKYYVDSVKGRFTISRDNAKNSLFLQMNSLRAEDTAVYYCARKCRGYYDRSGYYYKCAFDIWGQGTMVTVSS
VL: PYVLTQPPSVSVAPGKTARITCGGNNLGTNSVHWYQQKPGQAPVLVMYYDSDRPSGIPERFSGSNSGNTATLTISRVDAGDEADYYCQVWDSSSDHWVFGGGTKLTVL
With B5, the binding result is recorded as “binds”.

B6: BD55-3525 (antibody, V domains shown)
VH: EVQVVESGGGLVKPGGSLRLSCAGSGFTFNYAWMNWVRQAPGKGLEWVGRIKSETGGGTTDYAAPVRGRFTISRDDSKDTVFLQMNSLKTEDTAVYYCTTEATVTSWDAFDVWGQGTLVTVST
VL: QSVLTQPPSASGTSGQRVTISCSGSSSNIGSNTVNWYQQIPRRAPKLLIYRNNQRPSGVPDRFSASKSGTSASLAISGLHSEDEADYYCAAWDDRLNGFVFGTGTKVTVL
In the case of B6, the binding result is “binds”.

B7: BD55-4325 (antibody, V domains shown)
VH: QAQLVQSGAEVKKPGASVKVSCEAIGYAFKTYGISWVRQAPGQGLEWVGWISGHDGTTNYAQKFQGRVTLTTDTSTNTAFLEVKSLRSDDTAVFYCARDKAYSGYDYWSTIFDYWGQGTLVTVST
VL: SYVLTQPPSVSVAPGKTATITCGGNNIRSKSVQWFQQRPGQAPILVLYYDTDRPSGIPERFSGSNSGNTATLTISRVEAGDEADYYCQVWDSTTDHYLFGTGTKVTVL
Consider B7, for which the binding result is given as “binds”.

B8: S304 (antibody, V domains shown)
VH: EVQLVESGGGLVQPGGSLRLSCAASGFTFSSYDMHWVRQTTGKGLEWVSTIGTAGDTYYPDSVKGRFTISREDAKNSLYLQMNSLRAGDTAVYYCARGDSSGYYYYFDYWGQGTLLTVSS
VL: DIEMTQSPSSLSAAVGDRVTITCRASQSIGSYLNWYQQKPGKAPKLLIYAASSLQSGVPSRFSGSGSGTDFTLTISSLQPEDFAIYYCQQSYVSPTYTFGPGTKVDIK
With B8, the binding result was “binds”.

B9: DH1047 (antibody, V domains shown)
VH: QVQLVQSGAEVKKPGASVQVSCQASANTFTNHYIHWVRQAPGQGLEWMGIIYPTGGNTIYAQGFQGRVTMTRDTSLNTIYLELSSLRSEDTAVYYCARDVRVDDSWSGYDLLSGGTYFDYWGQGTLVTVSS
VL: not shown
As for B9, the binding result is “binds”.

B10: BD-815 (antibody, V domains shown)
VH: EVQLVQSGPEVKKPGESLKISCKASGYSFISNWIGWVRQMPGKGLEWMGIIYPGDSDTRYSPSFQGQVTISADRSITTAYLQWSSLKASDTAIYYCARLGSSWYWVDYWGQGTLVTVSS
VL: SSELTQDPAVSVALGQTVRITCQGDSLRSYHASWYQQKPGQAPILVIYDKNNRPSGIPDRFSGSGSGNTASLTITGAQAEDEADYYCNSRDSSGDHLVFGTGTKVTVL
In the case of B10, the binding result is on record as “binds”.

B11: BD-913 (antibody, V domains shown)
VH: QVQLVQSGAEVKKPGSSVKVSCKASGGTFSTYAISWVRQAPGQGLEWMGGIIPIVGIANDAQKFQGRVTITADKSTSTAYMELSSLRSEDTAVFYCARAQRKQWPVEDAYDIWGQGTMVTVSS
VL: QSVLTQPPSVSGAPGQRVTISCTGSSSNIGAGYDVHWYQQLPGTAPKLLIYGNSNRPSGVPDRFSGSKSGTSASLAITGLQAEDEADYYCQSYDSSLSGSVFGGGTKVTVL
For the molecule B11, the binding result is given as “binds”.

B12: BD55-5300 (antibody, V domains shown)
VH: QVQLVQSGAEVKKPGSSVKVSCKASGGSFTSHAVSWVRQAPGQGLEWMGVSIPLFGTAKYAQKFQGRVTITADESTSTVYMSLSNLRSGDTAVYYCARLFPNGTPTDLTAPSDYWGQGTLVTVSS
VL: DIQMTQSPSSLSASVGDRVTITCQASQDIGNYLNWYQQKPGKAPKLLIYDASHLETGVPSRFSGSASGTDFTLTISSLQPDDIATYYCQRYDDVPTYTFGQGTKLEIK
For B12, the binding result was “binds”.

B13: COVA1-16 (antibody, V domains shown)
VH: QVQLVQSGAEVKKPGASVKVSCKASGYTFTSYYMHWVRQAPGQGLEWMGIINSSGGSTSYAQKFQGRVTMTRDTSTSTVYMELSSLRSEDTAVYYCARPPRNYYDRSGYYQRAEYFQHWGQGTLVTVSS
VL: DIQLTQSPSSLSASVGDRVTITCQASQDISNYLNWYQQRPGKAPKLLIYDASNLETGVPSRFSGSGSGTDFTFTISSLQPEDIATYYCQQYDNPPLTFGGGTKLEIK
Take B13: the binding result was “binds”.

B14: BD55-5226 (antibody, V domains shown)
VH: EVQLVESGGGLVKPGGSLRLSCAASGFTFSSYSMNWVRQAPGKGLEWVSSISMTSSYRHYADSVRGRFTISRDNANNSLFLQMNSLRAEDTAVYFCARDSNLRTGDANDYWGQGTLVTVSS
VL: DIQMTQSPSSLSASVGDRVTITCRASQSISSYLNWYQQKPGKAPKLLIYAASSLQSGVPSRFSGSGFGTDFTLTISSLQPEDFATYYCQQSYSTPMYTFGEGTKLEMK
Regarding B14, the binding result is “binds”.

B15: COV2-2103 (antibody, V domains shown)
VH: EVQLVESGGGLVQPGGSLRLSCAASGFTFSRHWMTWVRQAPGKGLEWVANIKQDGSEKYYVDSVKGRLTISRDNAKNSLYLQMNSLRAEDTAVYYCARLGFYYGGADYWGQGTLVTVSS
VL: NFMLTQPHSVSESPGKTVTISCTGSSGSIASNYVQWYQQRPGSAPTTVISEDNQRPSGVPDRFSGSIDSSSNSASLTISGLKTEDEADYYCQSYDGINRAWVFGGGTKLTVL
Consider B15, for which the binding result is on record as “binds”.

B16: BD55-1237 (antibody, V domains shown)
VH: QVQLVESGGGVVQPGRSLRLSCATSDFTSNTYGIHWVRQAPGKGLEWVAVIWSDGSHEYYADSVKGRFTISRDNSKNTVYLQMASLRPEDTALYYCAKSPWLRGSFDVWGQGTVVPVSS
VL: B15 VL with M3L, T23S, S28Y, T46I, T47V, I49M, S50Y, G96S, I97D
As for B16, the binding result was “binds”.

B17: COV2-2389 (antibody, V domains shown)
VH: EVQLVESGGGLVQPGRSLRLSCAASGFTFDDYAMHWVRQAPGKGLEWVSGISWNSGTIGYADSVKGRFIISRDNAKNSLYLQMNSLRPEDTALYYCAKDIIRQGEDGMDVWGQGTTVTVSS
VL: DIQMTQSPSSLSASVGDRVTITCRASQNIASYLNWYQQKPGKAPKLLIYAASSLQSGVPSRFSGSGSGTDFTLTISSLQPEEFATYYCQQSYSTPWTFGQGTKVEIK
As to B17, the binding result was “binds”.

B18: BD55-1831 (antibody, V domains shown)
VH: QVQLQESGPGLVKPSQTLSLTCTVSGGSISNGDYYWSWIRQPPGKGLEWIGYIHNSGSTYKKLSLRSRLTISVDTSKNQFSLKLSSVTAADTAVYYCARTASPSGAWYFDFWGRGTLVTVSS
VL: SYVLTQPPSVSVAPGQTARITCGGNDIGSKNVHWYQQKPGQAPLLVVYDDTDRPSGIPERFSGSNSGNPATLTISRVEAGDEADYYCQVWDSSFDHVIFGGGTKLTVL
On to B18, for which the binding result is recorded as “binds”.

B19: BD55-3372 (antibody, V domains shown)
VH: EVHLVESGGGLVKPGGSLRLSCAASGFTFSNYAMNWVRQAPGKGLQWVSSITGSSSFIFYADSVKGRFTIVRDNAQNSLYLQMNSLRDEDTAVYYCARERDDYDTRLDWGQGTLVTVSS
VL: QPMLTQPPSVSGAPGQTVTISCVGSSSNIGAGYEVHWYQQLPGTAPKRLLSGNSDRPSGVPDRFSGSKSGTSASLAITGLQADDEADYYCQSYDSSLSLSAVVFGGGTKLTVL
Turning to B19, the binding result is given as “binds”.

B20: BD55-5259 (antibody, V domains shown)
VH: QITLKESGPTLVKPTQTLTLTCTFSGFSLTMPEVGVAWVRQPPGKALEWLALIYGDDNKRYSPSLESRLTITKDSSKNQVVLTMTNLDSVDTATYYCARRKFLWDSDPVAFDYWGLGTLVIVSS
VL: DIVMTQTPLSLPVTLGQPASISCRSSQSLVHIDGNIYLSWLQQRPGQPPRLLIYKISNRFSGVPDRFSGSGSGTDFTLKISRVEAEDVGVYYCMQATQFPHEMYTFGQGTKLEIR
As to B20, the binding result is on record as “binds”.

B21: DH1193 (antibody, V domains shown)
VH: QVQLVESGGGVVQPGRSLRLSCAASGFTFSNYGMHWVRQAPGKGLEWVTVISYDGSNKYYADSVKGRFTISRDNSKNTLYLQMNSLRAEDTAVYYCAKVLTWSIHPEDYYYGMDVWGQGTTVTVSS
VL: QSALTQPPSASGSPGQSVTISCTGTSSDVGGYNYVSWYQQHPGKAPKLMIYEVSQRPSGVPDRFSGSKSGNTASLTVSGLQAEDEADYYCSSYAGSNIGVFGGGTTLTVL
B21: the binding result is recorded as “binds”.

B22: BD55-5339 (antibody, V domains shown)
VH: EVQLVESGEGLVQPGGSLRISCAASGFTFSNYPMHWVRQAPGQGLESVSSITSNGDGTFYANSVKGRFTISRDNSKNTLYLQMGSLRTEDTALYFCAREVAEQLDCYFDLWGRGTLVTVSS
VL: DIQMTQSPSSLSASVGDRVTITCRASQSIRTYLNWYQHKPGKAPKLLIFAASSLQSGVPSRFSGSGSGTDFSLTISSLQPEDFATYYCQQSYITPPITFGQGTRLEIK
With B22, the binding result is “binds”.
